Experimental data reported in the supplement of paper PMC7125110.
± gives the standard error. Variants at the floor of the assay were thinned out.

B1: glmS ribozyme (parent)
chain: AUAAAAGCGCCAGAACUACAGAAAUGUAGUUGACGAGGAGGAGGUUUAUCGAAUUUUCGGCGGAUGCCUCCAAA

Key:
Details in all cases: with glucosamine-6-phosphate
glucosamine-6-phosphate [1] = variants of: B1; assay: self-cleavage kobs at 640 uM GlcN6P; higher = faster cleavage; RNA array
How it was run: (§1)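 Glucosamine-6-phosphate (40 μM to 10 mM) in HEPES/KCl/Mg(OAc)2 buffer was flowed over sequenced MiSeq chips, and tiles were imaged over ~14 h. Barcoded ribozyme variants there had been transcribed in situ by E. coli RNA polymerase and were tracked through a hybridised Cy3 probe at 37 °C. One- or two-exponential decay fits to per-tile medians, normalised to baseline and to non-cleaving reference variants, gave kobs. kcat and KM came from weighted Michaelis–Menten fits across concentrations.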

glucosamine-6-phosphate [2] = variants of: B1; assay: self-cleavage kobs at 2500 uM GlcN6P; higher = faster cleavage; RNA array
How it was run: as §1

glucosamine-6-phosphate [3] = variants of: B1; assay: self-cleavage kobs at 10000 uM GlcN6P; higher = faster cleavage; RNA array
How it was run: as §1

Variant	self-cleavage kobs at 640 uM GlcN6P (glucosamine-6-phosphate [1]) [s⁻¹]	self-cleavage kobs at 2500 uM GlcN6P (glucosamine-6-phosphate [2]) [s⁻¹]	self-cleavage kobs at 10000 uM GlcN6P (glucosamine-6-phosphate [3]) [s⁻¹]
U27G A28U U30G C68A	< 1e-05	< 1e-05	–
C19A A48U	6.44e-05 ± 2.3e-05	–	–
U31G G32U A53U A64G	0.000197 ± 6.1e-05	–	–
U31C G51C C71A	< 1e-05	–	–
U30C G38U A42U	< 1e-05	–	< 1e-05
U30A G51U A53C G59A G60C C70G	< 1e-05	–	–
U30G A33C G40C U54A A64C	< 1e-05	< 1e-05	–
G29C A33G G40A U56C	< 1e-05	–	–
U17G G62U	< 1e-05	–	–
G29C G41C C68G	< 1e-05	< 1e-05	< 1e-05
U30G U31G U49G U69G	7.71e-05 ± 2.2e-05	6.45e-05 ± 2.7e-05	–
G29U G41C A42U G63U	< 1e-05	–	–
U30C G37U G44C C58U C67U	< 1e-05	–	–
U30G U55G C68U	0.000548 ± 0.00014	7.82e-05 ± 2.1e-05	–
G29C U30G C70U	0.000861 ± 0.00017	–	–
C19A U30A	0.000125 ± 2.9e-05	0.000235 ± 4.3e-05	–
U31A A36C G37U U49C	< 1e-05	–	–
G29U C34U	< 1e-05	–	–
U31C G38U A39C G43U G62A U69G	< 1e-05	–	–
U31A U56G C58G	9.04e-05 ± 1.6e-05	0.000252 ± 5e-05	–
U31A G35C G38U A48U U49G G63C	< 1e-05	< 1e-05	–
A24C U47G C67A	0.000315 ± 7.3e-05	0.000647 ± 0.00024	–
G29A G35C G40A	< 1e-05	–	–

Variant	self-cleavage kobs at 640 uM GlcN6P (glucosamine-6-phosphate [1]) [s⁻¹]	self-cleavage kobs at 2500 uM GlcN6P (glucosamine-6-phosphate [2]) [s⁻¹]	self-cleavage kobs at 10000 uM GlcN6P (glucosamine-6-phosphate [3]) [s⁻¹]
G29U U47A A64U	< 1e-05	–	–
U31G G32U G40A A48C	< 1e-05	< 1e-05	–
A18C G35U U57A	< 1e-05	–	–
U30G C34A C68A	< 1e-05	–	–
A18C U56C U65G	5.82e-05 ± 2.6e-05	0.000131 ± 6.1e-05	–
U31A A33U G44U U69C	< 1e-05	–	–
G29A A33G U69A	5.13e-05 ± 2.3e-05	4.9e-05 ± 1.9e-05	–
G29A C50G C71A	0.000129 ± 3.4e-05	0.000111 ± 2.3e-05	–
U31A A53G U65A C70A	6.1e-05 ± 2.4e-05	–	–
G29A A48U G62C	< 1e-05	–	–
A23C U69A	0.000292 ± 0.0001	0.000135 ± 2.9e-05	9.83e-05 ± 4.3e-05
G29A A33U G44U	< 1e-05	–	–
G29A G43A U56A	< 1e-05	–	–
G29A G43C A52C C61U	< 1e-05	< 1e-05	–
U30G U31A U65A	0.000791 ± 0.00013	0.000896 ± 0.00022	–
C16U G32U C34G A53C	< 1e-05	< 1e-05	–
U31C A48G G60A	< 1e-05	< 1e-05	–
U31C G38U G41U G63C	< 1e-05	–	–
U30G G32A C68U	7.55e-05 ± 3.7e-05	–	–
G29U A42G U45C	6.45e-05 ± 2.4e-05	0.000107 ± 3.3e-05	–
U31G A36C U49G	8.9e-05 ± 1.7e-05	0.000257 ± 4.5e-05	0.000385 ± 6.8e-05
U31C A39C G51C	< 1e-05	–	–
C16U U49G	0.000174 ± 4.8e-05	0.000685 ± 0.00023	0.000387 ± 6.5e-05

Variant	self-cleavage kobs at 640 uM GlcN6P (glucosamine-6-phosphate [1]) [s⁻¹]	self-cleavage kobs at 2500 uM GlcN6P (glucosamine-6-phosphate [2]) [s⁻¹]	self-cleavage kobs at 10000 uM GlcN6P (glucosamine-6-phosphate [3]) [s⁻¹]
U30G G37A	9.32e-05 ± 2.2e-05	0.000172 ± 4.2e-05	0.000734 ± 0.00011
G29C A53G G63U	< 1e-05	–	–
G29A U45C U46G A53C C67G U69G	< 1e-05	< 1e-05	–
U30G G37U U55C C58G	< 1e-05	–	–
U31G G38U U69A C71U	0.000772 ± 0.0003	–	–
U31G G35U A36G U47A A64G C68U C71G	9.41e-05 ± 3.3e-05	–	–
C16U G60U C68A	< 1e-05	–	–
G29U G32U G44C U65C	< 1e-05	–	–
U31C G66A C68A U69G	7.97e-05 ± 4e-05	4.91e-05 ± 1.6e-05	–
G29U G37A U49A C58G G62U	< 1e-05	–	–
U31G G41A U46G	7.29e-05 ± 2.3e-05	0.00021 ± 5.3e-05	–
U30G A42U C50A G60U	< 1e-05	–	–
U30C G32U C34G G51U	< 1e-05	< 1e-05	–
G29C C70G	8e-05 ± 1.4e-05	2.33e-05 ± 8.6e-06	4e-05 ± 1.4e-05
U30A A33G A36C	< 1e-05	–	–
U31C G41A A48U C67G	< 1e-05	< 1e-05	–
U31C G37A A53G	5.04e-05 ± 8.3e-06	0.000126 ± 2e-05	–
U30G C34U G35A C68A	0.00169 ± 0.00067	–	–
U31A U47C G51A G66A	< 1e-05	< 1e-05	–
G29A G38A U65G	< 1e-05	< 1e-05	–
G29C A53G C68A	0.000139 ± 5.9e-05	9.57e-05 ± 3.7e-05	–
